Reference: patent US20090035320A1 (MIE UNIVERSITY, published 2009)
Changes are numbered by the printed parent chain.

T1: PCI-Flag (human, UniProt P05154 26-406, limits assumed)
T1 construct: Full-length human PCI ORF with a C-terminal Flag tag, secreted by CHO cells and purified from the culture supernatant; also called Flag-tagged PCI
T1 chain: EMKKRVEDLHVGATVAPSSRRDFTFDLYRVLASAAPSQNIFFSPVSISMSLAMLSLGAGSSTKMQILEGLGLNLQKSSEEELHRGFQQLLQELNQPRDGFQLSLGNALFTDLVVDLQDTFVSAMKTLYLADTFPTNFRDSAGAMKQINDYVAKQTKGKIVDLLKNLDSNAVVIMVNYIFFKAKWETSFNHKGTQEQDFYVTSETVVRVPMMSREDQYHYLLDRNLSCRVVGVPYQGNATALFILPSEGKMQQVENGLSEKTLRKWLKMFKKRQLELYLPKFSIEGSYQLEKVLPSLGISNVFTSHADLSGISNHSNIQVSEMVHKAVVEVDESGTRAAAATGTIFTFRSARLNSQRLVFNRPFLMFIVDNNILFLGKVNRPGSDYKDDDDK

B1: PC19G8 (antibody, IgG1, V domains shown)
VH: EVQLQQSGAELVKPGASVKLSCTASGFDIKDTFMHWVKQRPEQGLEWIGRIDYVNGNTKYDPKFQGKATITGDTSSNTAYLQLSSLTSEDTAVYYCARGGYDVREFAYWGQGTLVTVSA
VL: QIVLTQSPAIMSASPGEKVTITCSATSSLIYMHWFQQKPGSSPELWIYSTSNLASGVPARFSGSGSGTSYSLTISRMEAEDAATYYCQQRSSYPFTFGSGTKLEIK
notes: also called clone #19G8; anti-PCI neutralizing antibody
B2: PC23A7 (antibody, IgG2a, V domains shown)
VH: B1 VH with K30R, Y53L, G56V, K63N, G66D, K67R, G72A, S84T
VL: B1 VL with S41T, E44K
notes: Mouse hybridoma monoclonal, IgG2a, purified on Protein G; also called anti-PCI neutralizing antibody
B3: PC31E2 (antibody, V domains shown)
VH: QVQLQQSGAELVKPGASVKMSCKAFGYTFTTYPIEWMKQNHGKSLEWIGKFHPDNDDTNYNEKFKGKAKLTVEKSSSTVYLELSRLTSDDSAVYYCARGHDYDYGMDYWGQGTSVTVSS
VL: DIVLTQSPASLAVSLGQRATISCKASQSVDYDGDSYLNWYQQKPGQPPKLLIYGASNLESGTPARFSGSGSGTDFTLDIHPVEEEDAATYYCQQSNEDPPTFGGGTKLEIT
notes: also called anti-PCI neutralizing antibody
B4: PC39C6 (antibody, IgG1, V domains shown)
VH: EVQLQQSGAELVRPGALVKLSCKASGFNIKDYYIHWVKQRPEQGLEWIGRIDLEKGNIIYDPKFQGKDNITADTSSNTAYLQLSSLTSEDTAVYYCARGGYDVPSFAYWGQGTLVTVSA
VL: B1 VL with T26S, L29V, I30S, S41T, E44K
notes: Mouse hybridoma monoclonal, IgG1, purified on Protein G; also called anti-PCI neutralizing antibody
B5: PC23D8 (antibody, IgG2a, V domains shown)
VH: B1 VH
VL: B1 VL
notes: as for B3

Target: T1, PCI-Flag
Test: SPR (BIACORE 2000), PCI-Flag amine-coupled to CM5 chip, antibody injected
Experimental: PCI-Flag was diluted to 25 μg/ml with 10 mM sodium acetate (pH5.0), and then amine-coupled to a sensor chip CM5 (BIACORE; BR-1000-14) using an amine coupling kit (BIACORE; BR-1000-50) according to the method described in the kit. Approximately 3,000 RU of PCI-Flag was immobilized onto the CM5 chip by this treatment. The kinetic analyses described below were performed on BIACORE 2000 using the sensor chip. […] After the chip was equilibrated with HBS-EP buffer, 40 μl of the antibody solution at each concentration was injected at a flow rate of 20 μl/min. In the association phase, the antibody was injected over two minutes. Then, instead of the antibody, HBS-EP buffer was injected over two minutes in the dissociation phase. After the dissociation phase, 40 μl of 10 mM HCl and then 40 μl of 0.05% SDS were injected continuously to regenerate the sensor chip. The sensorgrams obtained by the procedure described above were superimposed, and the binding rate constant (ka), dissociation rate constant (kd), dissociation constant (KD), and maximal binding (Rmax) were computed using data analysis software (BIAevaluation, ver. 3.0).

Binder | Kd | koff | kon
B1 | 0.126 nM | 2.13e-05 s⁻¹ | 168000 M⁻¹ s⁻¹
B2 | 0.473 nM | 7.17e-05 s⁻¹ | 151000 M⁻¹ s⁻¹
B3 | 1.79 nM | 0.000313 s⁻¹ | 175000 M⁻¹ s⁻¹
B4 | 5.51 nM | 0.000489 s⁻¹ | 88800 M⁻¹ s⁻¹
B5 | 0.293 nM | 6.59e-05 s⁻¹ | 225000 M⁻¹ s⁻¹
